How the values were obtained:
HROB-FLAG [1] = biological target: T1, HROB-FLAG (human, UniProt Q8N3J3-4 1-646, T126P); assay: EMSA; 3 mM EDTA; EMSA: 25 mM Tris-acetate pH 7.5, 3 mM EDTA (or 4 mM ATP/ATPgS + 1 mM Mg acetate), 1 mM DTT, 0.1 mg/ml BSA, 1 nM DNA (100 ng for M13), 15 min on ice, gels at 4 C; mass photometry: 25 mM HEPES-NaOH pH 7.5, 2 mM Mg acetate, 1 mM ATP, room temperature; conditions: protein: recombinant; tags: C-terminal FLAG; label: 3' 32P-dC (terminal transferase); single strand
T1 sequence: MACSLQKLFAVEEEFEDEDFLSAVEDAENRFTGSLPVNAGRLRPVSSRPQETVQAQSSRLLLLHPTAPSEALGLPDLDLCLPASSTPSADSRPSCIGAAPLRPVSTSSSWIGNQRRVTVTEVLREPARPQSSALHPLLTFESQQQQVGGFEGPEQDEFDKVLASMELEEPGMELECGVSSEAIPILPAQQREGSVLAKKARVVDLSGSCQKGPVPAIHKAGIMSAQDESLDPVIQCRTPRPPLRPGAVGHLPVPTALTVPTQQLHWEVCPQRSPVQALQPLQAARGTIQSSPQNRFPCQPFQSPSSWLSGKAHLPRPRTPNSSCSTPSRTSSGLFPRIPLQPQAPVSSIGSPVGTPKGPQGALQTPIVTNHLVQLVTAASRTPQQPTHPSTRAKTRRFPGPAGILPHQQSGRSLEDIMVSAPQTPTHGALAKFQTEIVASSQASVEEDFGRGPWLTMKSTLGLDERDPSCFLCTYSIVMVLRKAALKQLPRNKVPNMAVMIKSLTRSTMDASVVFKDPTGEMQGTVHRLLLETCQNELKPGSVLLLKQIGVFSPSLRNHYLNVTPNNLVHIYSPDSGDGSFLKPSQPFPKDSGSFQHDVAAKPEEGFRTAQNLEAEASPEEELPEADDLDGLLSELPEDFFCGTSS

HROB-ΔOB = biological target: T2, HROB-ΔOB (human, UniProt Q8N3J3-4 1-490+575-646, T126P;internal_change); assay: EMSA; 3 mM EDTA; comparable to WT HROB; EMSA: 25 mM Tris-acetate pH 7.5, 3 mM EDTA (or 4 mM ATP/ATPgS + 1 mM Mg acetate), 1 mM DTT, 0.1 mg/ml BSA, 1 nM DNA (100 ng for M13), 15 min on ice, gels at 4 C; mass photometry: 25 mM HEPES-NaOH pH 7.5, 2 mM Mg acetate, 1 mM ATP, room temperature; conditions: protein: recombinant; tags: FLAG; label: 3' 32P-dC (terminal transferase); single strand
T2 sequence: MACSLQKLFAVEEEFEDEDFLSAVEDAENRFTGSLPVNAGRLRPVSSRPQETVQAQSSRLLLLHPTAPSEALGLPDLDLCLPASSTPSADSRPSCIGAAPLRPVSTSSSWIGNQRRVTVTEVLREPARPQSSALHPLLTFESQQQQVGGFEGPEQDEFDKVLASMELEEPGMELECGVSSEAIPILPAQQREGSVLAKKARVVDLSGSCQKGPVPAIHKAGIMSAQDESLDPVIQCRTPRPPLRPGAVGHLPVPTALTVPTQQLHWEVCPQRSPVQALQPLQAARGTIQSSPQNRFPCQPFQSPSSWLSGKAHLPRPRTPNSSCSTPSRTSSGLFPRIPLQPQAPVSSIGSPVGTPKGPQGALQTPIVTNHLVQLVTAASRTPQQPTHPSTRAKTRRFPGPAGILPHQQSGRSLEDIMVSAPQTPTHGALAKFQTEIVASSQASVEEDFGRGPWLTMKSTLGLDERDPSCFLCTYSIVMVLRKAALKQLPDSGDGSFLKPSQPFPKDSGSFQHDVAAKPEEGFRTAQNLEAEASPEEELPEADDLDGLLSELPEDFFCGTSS

MCM8 R309D;MBP-MCM9 = MCM8 R309D;MBP-MCM9 (human;human, UniProt Q9UJA3;Q9NXL9 1-840;1-1143, R309D|); assay: mass photometry; 1 mM ATP, 2 mM Mg acetate; heterodimer bound plus likely hexamer (Peak 4); EMSA: 25 mM Tris-acetate pH 7.5, 3 mM EDTA (or 4 mM ATP/ATPgS + 1 mM Mg acetate), 1 mM DTT, 0.1 mg/ml BSA, 1 nM DNA (100 ng for M13), 15 min on ice, gels at 4 C; mass photometry: 25 mM HEPES-NaOH pH 7.5, 2 mM Mg acetate, 1 mM ATP, room temperature; conditions: protein: recombinant;recombinant; tags: N-terminal FLAG;N-terminal MBP (not cleaved); chain copies: 3;3; single strand
HROB-FLAG [2] = biological target: T1, HROB-FLAG; assay: EMSA; 3 mM EDTA; preferred; EMSA: 25 mM Tris-acetate pH 7.5, 3 mM EDTA (or 4 mM ATP/ATPgS + 1 mM Mg acetate), 1 mM DTT, 0.1 mg/ml BSA, 1 nM DNA (100 ng for M13), 15 min on ice, gels at 4 C; mass photometry: 25 mM HEPES-NaOH pH 7.5, 2 mM Mg acetate, 1 mM ATP, room temperature; conditions: protein: recombinant, tags: C-terminal FLAG

MCM8 R309D;MBP-MCM9, sequence (Q9UJA3 whole entry R309D, chain 1 of 2): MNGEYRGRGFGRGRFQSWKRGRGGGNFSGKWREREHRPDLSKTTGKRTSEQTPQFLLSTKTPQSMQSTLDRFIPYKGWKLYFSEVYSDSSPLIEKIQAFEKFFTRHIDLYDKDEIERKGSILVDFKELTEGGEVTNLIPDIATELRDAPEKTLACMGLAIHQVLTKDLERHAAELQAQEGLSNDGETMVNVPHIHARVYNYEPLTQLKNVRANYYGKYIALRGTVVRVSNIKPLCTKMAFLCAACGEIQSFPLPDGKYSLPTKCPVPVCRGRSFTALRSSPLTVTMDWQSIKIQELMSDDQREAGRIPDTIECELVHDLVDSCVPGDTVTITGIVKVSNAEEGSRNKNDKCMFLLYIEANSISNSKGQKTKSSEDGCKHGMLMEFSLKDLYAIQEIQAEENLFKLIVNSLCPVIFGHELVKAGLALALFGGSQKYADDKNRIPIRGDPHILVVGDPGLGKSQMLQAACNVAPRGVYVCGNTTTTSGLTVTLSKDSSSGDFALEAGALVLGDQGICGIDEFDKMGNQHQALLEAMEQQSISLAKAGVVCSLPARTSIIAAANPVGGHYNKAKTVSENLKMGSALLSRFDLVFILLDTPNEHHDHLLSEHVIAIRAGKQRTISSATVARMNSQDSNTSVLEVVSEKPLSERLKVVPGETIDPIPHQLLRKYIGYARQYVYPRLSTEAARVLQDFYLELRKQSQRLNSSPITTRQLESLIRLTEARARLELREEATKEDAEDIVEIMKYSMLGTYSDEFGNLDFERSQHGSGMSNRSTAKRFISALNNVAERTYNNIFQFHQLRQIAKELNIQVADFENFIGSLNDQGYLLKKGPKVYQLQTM
MCM8 R309D;MBP-MCM9, sequence (Q9NXL9 whole entry, chain 2 of 2): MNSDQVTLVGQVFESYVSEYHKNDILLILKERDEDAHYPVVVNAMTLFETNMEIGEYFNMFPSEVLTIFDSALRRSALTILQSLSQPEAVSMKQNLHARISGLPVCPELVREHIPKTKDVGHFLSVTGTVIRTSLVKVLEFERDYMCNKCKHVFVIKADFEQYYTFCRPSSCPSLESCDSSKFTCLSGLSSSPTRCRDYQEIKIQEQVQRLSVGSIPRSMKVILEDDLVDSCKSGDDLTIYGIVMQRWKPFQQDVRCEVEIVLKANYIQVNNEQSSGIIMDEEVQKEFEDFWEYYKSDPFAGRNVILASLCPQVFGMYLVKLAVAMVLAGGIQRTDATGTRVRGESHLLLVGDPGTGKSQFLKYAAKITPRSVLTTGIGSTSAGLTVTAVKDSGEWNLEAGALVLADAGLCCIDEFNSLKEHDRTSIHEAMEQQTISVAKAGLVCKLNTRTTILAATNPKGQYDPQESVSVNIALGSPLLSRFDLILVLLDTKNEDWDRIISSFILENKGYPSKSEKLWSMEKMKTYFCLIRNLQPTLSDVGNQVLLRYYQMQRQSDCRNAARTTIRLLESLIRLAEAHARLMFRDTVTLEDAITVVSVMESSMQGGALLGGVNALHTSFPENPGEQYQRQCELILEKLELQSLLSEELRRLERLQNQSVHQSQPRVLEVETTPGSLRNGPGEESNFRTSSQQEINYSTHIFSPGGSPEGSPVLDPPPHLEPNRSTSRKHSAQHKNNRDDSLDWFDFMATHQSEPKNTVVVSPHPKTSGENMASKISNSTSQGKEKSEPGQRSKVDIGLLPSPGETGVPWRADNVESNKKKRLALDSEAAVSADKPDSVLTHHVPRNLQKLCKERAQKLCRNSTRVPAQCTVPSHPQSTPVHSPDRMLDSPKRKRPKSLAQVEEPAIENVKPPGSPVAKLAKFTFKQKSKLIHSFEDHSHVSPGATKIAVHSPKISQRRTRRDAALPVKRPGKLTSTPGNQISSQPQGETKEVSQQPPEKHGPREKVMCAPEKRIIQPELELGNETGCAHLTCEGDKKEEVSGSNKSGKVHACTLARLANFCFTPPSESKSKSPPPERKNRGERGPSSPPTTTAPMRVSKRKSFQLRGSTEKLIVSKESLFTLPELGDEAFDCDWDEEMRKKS

B1: X12-3 HJ3 (93 nt ssDNA) (ssDNA)
DNA: GAGATCTATCTGGTGCCTTCTGACAGTGAATGGGTAACGAATCGTAATAGTCTCTAGACAGCATGTCCTAGCAATGTAATCGTCTATGACGTC
binding result (HROB-FLAG [1]): binds | binding result (HROB-ΔOB): binds

B2: PC216 (70 nt ssDNA) (ssDNA)
DNA: GTAAGTGCCGCGGTGCGGGTGCCAGGGCGTGCCCTTGGGCTCCCCGGGCGCGTACTCCACCTCATGCATC
binding result (MCM8 R309D;MBP-MCM9): binds

B3: Holliday junction (PC1253/PC1254/PC1255/PC1256) (structured_DNA)
DNA 1: TGGGTCAACGTGGGCAAAGATGTCCTAGCAATGTAATCGTCTATGACGTT
DNA 2: TGCCGAATTCTACCAGTGCCAGTGATGGACATCTTTGCCCACGTTGACCC
DNA 3: GTCGGATCCTCTAGACAGCTCCATGATCACTGGCACTGGTAGAATTCGGC
DNA 4: CAACGTCATAGACGATTACATTGCTACATGGAGCTGTCTAGAGGATCCGA
binding result (HROB-FLAG [2]; label: 3' 32P-dC on PC1253, four-way junction 1:2 2:3 3:4 4:1): binds

B4: Y-structure (PC1254/PC1253) (structured_DNA)
DNA 1: TGCCGAATTCTACCAGTGCCAGTGATGGACATCTTTGCCCACGTTGACCC
DNA 2: TGGGTCAACGTGGGCAAAGATGTCCTAGCAATGTAATCGTCTATGACGTT
binding result (HROB-FLAG [2]; label: 3' 32P-dC on PC1254, fork 1:2): binds

From paper PMC11055865, “Mechanism of DNA unwinding by MCM8-9 in complex with HROB”
